Source: patent publication US20220275100A1 (JIANGSU HENGRUI MEDICINE, published 2022)
Changes are numbered by the printed parent chain.

B1: h009-07 (antibody, human IgG1, kappa)
heavy: not shown
light: EIVLTQSPATLSLSPGERATLSCRASQSIYTNLHWYQQKPGQSPRLLIKYASQSISGIPARFSGSGSGTDFTLTISSLEPEDFAVYYCQQSNSWPLTFGGGTKVEIKRTVAAPSVFIFPPSDEQLKSGTASVVCLLNNFYPREAKVQWKVDNALQSGNSQESVTEQDSKDSTYSLSSTLTLSKADYEKHKVYACEVTHQGLSSPVTKSFNRGEC
notes: Humanized, human IgG1 / kappa; h009 VH2 + h009 VL2
B2: h009-11 (antibody, human IgG1, kappa, V domains shown)
VH: EVQLVQSGAEVKKPGASVKVSCKASGYTFTDYNLNWVRQAPGQRLEWMGVINPKYDAINYNQKFKDRVTITRDTSASTAYMELSSLRSEDTAVYYCAREGWGKALDYWGQGTLVTVSS
VL: EFVLTQSPATLSLSPGERATLSCRASQSIYTNLHWYQQKPGQSPRLLIKYASQSISGIPARFSGSGSGTDFTLTISSLEPEDFAVYFCQQSNSWPLTFGGGTKVEIKR
B3: h009-12 (antibody, human IgG1, kappa, V domains shown)
VH: B2 VH with V2F, R44S, R72V
VL: B2 VL
B4: h009-14 (antibody, human IgG1, kappa, V domains shown)
VH: B2 VH with V2F, R38K, R44S, R67K, I70L, R72V, T74Q
VL: B2 VL
B5: h009-15 (antibody, human IgG1, kappa, V domains shown)
VH: B2 VH with V2F, R38K, R44S, M48I, R67K, V68A, I70L, R72V, T74Q
VL: B2 VL
B6: h009-13 (antibody, human IgG1, kappa, V domains shown)
VH: B2 VH with V2F, R44S, M48I, V68A, R72V
VL: B2 VL
B7: h009-09 (antibody, human IgG1, kappa, V domains shown)
VH: B2 VH with V2F, R38K, R44S, R67K, I70L, R72V, T74Q
VL: B2 VL with F2I, F87Y
B8: h009-08 (antibody, human IgG1, kappa, V domains shown)
VH: B2 VH with V2F, R44S, M48I, V68A, R72V
VL: B2 VL with F2I, F87Y
B9: h009-10 (antibody, human IgG1, kappa, V domains shown)
VH: B2 VH with V2F, R38K, R44S, M48I, R67K, V68A, I70L, R72V, T74Q
VL: B2 VL with F2I, F87Y
B10: ch-011 (antibody, human IgG1, V domains shown)
VH: EVQLVESGGGLVKPGGSLKLSCAASGFTFSDYGMHWVRQAPEKGLEWVAFISSGSSSIYYADTVKGRFTISRDNAKNTLFLQMTSLRSEDTAMYSCARNYVSSYGYFDYWGQGTTLTVSS
VL: DIVMTQSPASLAVSLGQRATISCRASENVDNYGISFMHWYQQKPGQPPKLLIYRASNLESGIPARFSGSGSRTDFTLTINPVETDDVATYYCQQSNKDPLTFGSGTKLEIK
notes: also called chimeric antibody of hybridoma clone m011
B11: h011-06 (antibody, human IgG1, kappa, V domains shown)
VH: B10 VH with K13Q, K19R, E42G, N77S, T78S, S88A, M93V, L116V
VL: DIVMTQSPDSLAVSLGERATINCRASENVDNYGISFMHWYQQKPGQPPKLLIYRASNLESGIPDRFSGSGSRTDFTLTISSLQAEDVATYYCQQSNKDPLTFGGGTKVEIKR
B12: ch-160 (antibody, human IgG1, V domains shown)
VH: B10 VH with A23V, V48I, S53T, S57N, A61V, T63K, S95Y
VL: B10 VL with M4L, I21V, N28S, S95T, S104G, I110L
notes: also called chimeric antibody of hybridoma clone m160
B13: h160-01 (antibody, human IgG1, kappa)
heavy: not shown
light: DIVMTQSPASLAVSLGERATINCRASESVDNYGISFMHWYQQKPGQPPKLLIYRASNLESGVPDRFSGSGSGTDFTLTISSLQAEDVAVYYCQQTNKDPLTFGGGTKVEIKRTVAAPSVFIFPPSDEQLKSGTASVVCLLNNFYPREAKVQWKVDNALQSGNSQESVTEQDSKDSTYSLSSTLTLSKADYEKHKVYACEVTHQGLSSPVTKSFNRGEC
notes: Humanized, human IgG1 / kappa; h160 VH1 + h160 VL1
B14: h011-03 (antibody, human IgG1, kappa, V domains shown)
VH: B10 VH with K13Q, K19R, E42G, N77S, T78S, F80Y, S88A, M93V, S95Y, L116V
VL: B11 VL with I62V, T89V
B15: h160-04 (antibody, human IgG1, kappa, V domains shown)
VH: EVQLVESGGGLVQPGGSLRLSCAASGFTFSDYGMHWVRQAPGKGLEWVAFISTGSSNIYYVDKVKGRFTISRDNAKNTLYLQMTSLRAEDTAVYYCARNYVSSYGYFDYWGQGTTVTVSS
VL: B11 VL with M4L, D9A, N22S, N28S, D64A, T89V, S95T
B16: h160-08 (antibody, human IgG1, kappa, V domains shown)
VH: B15 VH with V48I
VL: B11 VL with M4L, D9A, N22S, N28S, D64A, T89V, S95T
B17: h160-02 (antibody, human IgG1, kappa)
heavy: not shown
light: B13 light with M4L
B18: h160-05 (antibody, human IgG1, kappa)
heavy: not shown
light: B13 light
B19: h160-03 (antibody, human IgG1, kappa, V domains shown)
VH: B15 VH
VL: B11 VL with M4L, D9A, N28S, I62V, D64A, T89V, S95T
B20: h160-06 (antibody, human IgG1, kappa)
heavy: not shown
light: B13 light with M4L
B21: h011-05 (antibody, human IgG1, kappa, V domains shown)
VH: B15 VH with T53S, N57S, V61A, K63T, N77S, T78S
VL: B11 VL
B22: h160-07 (antibody, human IgG1, kappa, V domains shown)
VH: B15 VH with V48I
VL: B11 VL with M4L, D9A, N28S, I62V, D64A, T89V, S95T
B23: h011-01 (antibody, human IgG1, kappa)
heavy: not shown
light: B13 light with A9D, S28N, T95S
notes: Humanized, human IgG1 / kappa; h011 VH1 + h011 VL1
B24: h011-02 (antibody, human IgG1, kappa, V domains shown)
VH: B10 VH with K13Q, K19R, E42G, N77S, T78S, S88A, M93V, L116V
VL: B11 VL with I62V, R72G, T89V
B25: h011-04 (antibody, human IgG1, kappa, V domains shown)
VH: B10 VH with K13Q, K19R, E42G, N77S, T78S, S88A, M93V, L116V
VL: B11 VL with I62V, T89V
B26: ch-009 (antibody, human IgG1, V domains shown)
VH: EFQLQQSGPELVKPGASVKISCKASGYSFTDYNLNWVKQSNGKSLEWIGVINPKYDAINYNQKFKDKATLTVDQSSSTAYMQLSSLTSEDSAVYYCAREGWGKALDYWGPGTSVIVSS
VL: DFVLTQSPATLSVTPGDSVSLSCRASQSIYTNLHWYQQKSHESPRLLIKYASQSISGIPSRFSGSGSGTDFTLSINSVETEDSGMYFCQQSNSWPLTFGAGTKLELK
notes: also called chimeric antibody of hybridoma clone m009

The binders below were run against T1, Fusion protein of CD38 extracellular domain with His tag: CD38-ECD-His (human, UniProt P28907 43-300) (assay: SPR (Biacore), antibody captured by anti-human Fc, CD38-ECD-His as analyte;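 also: human CD38-ECD-His flowed over the captured antibody with the signal tracked in real time, and association and dissociation curves were fitted to derive the affinity values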).
T1 construct: unlabelled analyte in Biacore; also called human CD38-ECD-His; Human CD38-His
Description: Then the human CD38-ECD-His antigen passed through the surface of the chip, and a real-time detection for the reaction signal was performed with Biacore instrument. The resulting binding and dissociation curves were fitted to calculate the affinity values. After the dissociation of each cycle was completed in the experiment, the biochip was washed and regenerated with the regeneration solution supplied in the Human Fc Capture Kit (GE).

Kd [nM]	koff [s⁻¹]	kon [M⁻¹ s⁻¹]	Binder
0.995	0.0021	2.11e+06	B1
5.17	0.0121	2.33e+06	B2
0.409	0.000917	2.24e+06	B3
0.815	0.00185	2.27e+06	B4
0.745	0.0017	2.28e+06	B5
0.465	0.00106	2.28e+06	B6
2.14	0.00489	2.29e+06	B7
1.18	0.00223	1.89e+06	B8
2.12	0.00433	2.04e+06	B9
0.199	0.00148	7.46e+06	B10
0.3	0.00201	6.71e+06	B11
0.062	0.00017	2.74e+06	B12
0.0687	0.000136	1.99e+06	B13
0.306	0.00213	6.97e+06	B14
0.0867	0.000184	2.12e+06	B15
0.0782	0.000179	2.29e+06	B16
0.0846	0.000163	1.93e+06	B17
0.0691	0.000141	2.05e+06	B18
0.0779	0.000187	2.4e+06	B19
0.0782	0.000164	2.09e+06	B20
0.309	0.00213	6.89e+06	B21
0.0748	0.000182	2.43e+06	B22
0.311	0.00208	6.68e+06	B23
0.297	0.00195	6.59e+06	B24
0.299	0.00202	6.76e+06	B25
0.234	0.000477	2.04e+06	B26
